Source: patent US20250026827A1 (Alector, published 2025)

T1: mouse SIRPα D1-Fc (mouse, UniProt P97797 32-150, limits assumed)
T1 construct: domain: D1
T1 sequence (looked up): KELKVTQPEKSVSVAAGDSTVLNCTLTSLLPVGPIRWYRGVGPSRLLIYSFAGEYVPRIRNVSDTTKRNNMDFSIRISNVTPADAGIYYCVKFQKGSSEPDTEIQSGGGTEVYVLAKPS

T2: mouse SIRPβ1 on CHO cells (mouse)
T2 construct: Whole entry
T2 chain: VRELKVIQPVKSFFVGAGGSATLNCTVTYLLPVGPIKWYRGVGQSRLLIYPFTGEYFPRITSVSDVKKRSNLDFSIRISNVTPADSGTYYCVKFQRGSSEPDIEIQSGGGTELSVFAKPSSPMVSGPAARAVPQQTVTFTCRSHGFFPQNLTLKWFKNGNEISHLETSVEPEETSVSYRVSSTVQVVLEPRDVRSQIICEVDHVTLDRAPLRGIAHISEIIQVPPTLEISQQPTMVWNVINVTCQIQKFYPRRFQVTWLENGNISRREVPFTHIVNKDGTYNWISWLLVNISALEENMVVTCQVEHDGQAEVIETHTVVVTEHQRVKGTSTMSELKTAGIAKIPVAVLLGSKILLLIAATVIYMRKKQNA

T3: mouse SIRPα on cells (mouse, UniProt P97797 32-513)
T3 construct: whole, on cells
T3 sequence (looked up): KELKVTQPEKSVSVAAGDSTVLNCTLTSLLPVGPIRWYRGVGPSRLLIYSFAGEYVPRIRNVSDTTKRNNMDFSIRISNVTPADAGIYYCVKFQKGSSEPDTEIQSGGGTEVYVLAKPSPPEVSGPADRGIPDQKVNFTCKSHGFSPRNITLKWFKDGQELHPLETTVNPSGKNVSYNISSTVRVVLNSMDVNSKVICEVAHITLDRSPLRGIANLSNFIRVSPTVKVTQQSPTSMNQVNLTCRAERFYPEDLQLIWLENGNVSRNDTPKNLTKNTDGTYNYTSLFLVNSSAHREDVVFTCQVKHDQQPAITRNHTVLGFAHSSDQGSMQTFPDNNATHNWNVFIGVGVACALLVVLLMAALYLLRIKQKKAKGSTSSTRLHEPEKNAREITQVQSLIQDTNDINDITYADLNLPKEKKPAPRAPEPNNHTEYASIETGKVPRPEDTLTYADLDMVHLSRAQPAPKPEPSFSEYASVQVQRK


What was measured:
[1] = target: T4, human SIRPα domain 1 (D1) Fc fusion (human, UniProt P78324 32-149); assay: Octet
T4 construct: also called human SIRPα D1-Fc; Human SIRPα Fc; not shown: C-terminal human IgG1 Fc

mouse SIRPα D1-Fc = target: T1, mouse SIRPα D1-Fc; assay: Octet
human SIRPα on cells [2] = target: T5, human SIRPα on cells (human, UniProt P78324 31-504); assay: flow cytometry;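 for FOB: antibodies tested at 1 µg/ml for 30 min on ice against receptor-expressing cells, detected with a PE-labelled secondary antibody, read as mean fluorescence intensity relative to background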
T5 construct: Whole entry

[3] = target: T2, mouse SIRPβ1 on CHO cells; assay: flow cytometry;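 for FOB: antibodies tested at 1 µg/ml for 30 min on ice against receptor-expressing cells, detected with a PE-labelled secondary antibody, read as mean fluorescence intensity relative to background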
mouse SIRPα on cells [4] = target: T3, mouse SIRPα on cells; assay: flow cytometry;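 for FOB: antibodies tested at 1 µg/ml for 30 min on ice against receptor-expressing cells, detected with a PE-labelled secondary antibody, read as mean fluorescence intensity relative to background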
[5] = target: T6, human SIRPβ1 isoform 1 on cells (human, UniProt O00241 30-398); assay: flow cytometry;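 note: antibodies tested at 1 µg/ml for 30 min on ice against receptor-expressing cells, detected with a PE-labelled secondary antibody, read as mean fluorescence intensity relative to background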
T6 construct: On CHO cells (low level), on BWZ/BW5147.G.1.4 cells (reporter cells co-express human DAP12) or on primary human myeloid cells; also called huSIRPβ1; BWZ-huSIRPβ1
T6 sequence (O00241 30-398): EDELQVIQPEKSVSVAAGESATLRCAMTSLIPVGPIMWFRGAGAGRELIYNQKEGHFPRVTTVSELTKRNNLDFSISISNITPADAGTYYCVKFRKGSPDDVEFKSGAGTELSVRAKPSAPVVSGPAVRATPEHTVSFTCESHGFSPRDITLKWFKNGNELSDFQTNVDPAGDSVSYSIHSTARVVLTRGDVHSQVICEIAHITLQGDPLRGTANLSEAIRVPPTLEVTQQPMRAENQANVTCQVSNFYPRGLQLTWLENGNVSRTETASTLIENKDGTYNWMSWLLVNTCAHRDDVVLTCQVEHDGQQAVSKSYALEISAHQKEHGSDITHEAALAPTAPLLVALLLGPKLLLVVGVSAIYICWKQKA

human SIRPα on cells [6] = target: T5, human SIRPα on cells; assay: flow cytometry; remark: listed apart in the source
[7] = target: T2, mouse SIRPβ1 on CHO cells; assay: flow cytometry
mouse SIRPα on cells [8] = target: T3, mouse SIRPα on cells; assay: flow cytometry; remark: listed apart in the source
[9] = target: T7, human SIRPβ1 domain 1 (D1) Fc fusion (human, UniProt O00241 30-148); assay: Octet, IgG avid
T7 construct: Made in HEK293/T cells with a heterologous signal peptide; also called Human SIRPβ1 D1-Fc; Human SIRPβ1-Fc; not shown: C-terminal human IgG1 Fc
T7 sequence (O00241 30-148 limits assumed): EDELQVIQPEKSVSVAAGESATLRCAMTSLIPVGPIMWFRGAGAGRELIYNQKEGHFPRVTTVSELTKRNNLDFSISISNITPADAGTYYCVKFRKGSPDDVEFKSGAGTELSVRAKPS

Binder | binding result [1] | binding result (mouse SIRPα D1-Fc) | binding result (human SIRPα on cells [2]) | binding result [3] | binding result (mouse SIRPα on cells [4]) | FOB [5] [fold over background] | FOB (human SIRPα on cells [6]) [fold over background] | FOB [7] [fold over background] | FOB (mouse SIRPα on cells [8]) [fold over background] | Kd [9] [nM]
SB-35 (antibody, V domains shown, IgG) VH: QVQLVQSGAEVKKPGSSVKVSCKASGGTFSSYAISWVRQAPGQGLEWMGGIIPIFGTANYAQKFQGRVTITADESTSTAYMELSSLRSEDTAVYYCARGRPQSESYLLDYWGQGTLVTVSS VL: not shown | no binding (tested: 100 nM) | no binding (tested: 100 nM) | no binding (tested: 1 ug/ml) | no binding (tested: 1 ug/ml) | no binding (tested: 1 ug/ml) | 2.1 | 2.6 | 1.1 | 1 | 7.47
SB-37 (antibody, V domains shown, IgG) VH: QVQLVQSGAEVKKPGSSVKVSCKASGGTFSNYAISWVRQAPGQGLEWMGGIIPIFGTANYAQKFQGRVTITADESTSTAYMELSSLRSEDTAVYYCARSRWGASGYYYYMDVWGQGTMVTVSS VL: EIVLTQSPATLSLSPGERATLSCRASQSVSSYLAWYQQKPGQAPRLLIYDASNRATGIPARFSGSGSGTDFTLTISSLEPEDFAVYYCQQRHTYPLTFGGGTKVEIK | no binding (tested: 100 nM) | no binding (tested: 100 nM) | no binding (tested: 1 ug/ml) | no binding (tested: 1 ug/ml) | no binding (tested: 1 ug/ml) | 3.8 | 2.2 | 1.2 | 1 | 7.5
SB-38 (antibody, V domains shown, IgG) VH: QVQLVQSGAEVKKPGASVKVSCKASGYTFTSYYMHWVRQAPGQGLEWMGIINPSGGSTSYAQKFQGRVTMTRDTSTSTVYMELSSLRSEDTAVYYCARESGTDFGTISYWGQGTLVTVSS VL: DIQMTQSPSSVSASVGDRVTITCRASQGISSWLAWYQQKPGKAPKLLIYAASSLQSGVPSRFSGSGSGTDFTLTISSLQPEDFATYYCQQAVSYPITFGGGTKVEIK | no binding (tested: 100 nM) | no binding (tested: 100 nM) | no binding (tested: 1 ug/ml) | no binding (tested: 1 ug/ml) | no binding (tested: 1 ug/ml) | 1.5 | 2.1 | 1.3 | 1.1 | 7.33
SB-42 (antibody, V domains shown, IgG) VH: QVQLVQSGAEVKKPGASVKVSCKASGYTFTSYGISWVRQAPGQGLEWMGWISAYNGNTNYAQKLQGRVTMTTDTSTSTAYMELRSLRSDDTAVYYCARGPGHYYVAGMDVWGQGTTVTVSS VL: EIVMTQSPATLSVSPGERATITCRASQSISSYLNWYQQKPGKAPKLLIYSASSLQSGVPSRFSGSGSGTDFTLTISSLQPEDFATYYCQQGDSFPITFGGGTKVEIK | no binding (tested: 100 nM) | no binding (tested: 100 nM) | no binding (tested: 1 ug/ml) | no binding (tested: 1 ug/ml) | no binding (tested: 1 ug/ml) | 3.3 | 2.7 | 1.2 | 1.2 | 12.3
SB-43 (antibody, V domains shown, IgG) VH: QVQLQESGPGLVKPSETLSLTCAVSGYSISSGYYWAWIRQPPGKGLEWIGSIYHSGSTYYNPSLKSRVTISVDTSKNQFSLKLSSVTAADTAVYYCARDAPGYPMLGMDVWGQGTTVSVSS VL: EIVLTQSPATLSLSPGERATLSCRASQSVSSYLAWYQQKPGQAPRLLIYDASKRATGIPARFSGSGSGTDFTLTISSLEPEDFAVYYCQQRFDFPITFGGGTKVEIK | no binding (tested: 100 nM) | no binding (tested: 100 nM) | no binding (tested: 1 ug/ml) | no binding (tested: 1 ug/ml) | no binding (tested: 1 ug/ml) | 2.8 | 2.3 | 1.1 | 1.6 | 12.3
SB-44 (antibody, V domains shown, IgG) VH: EVQLVESGGGLVQPGGSLRLSCAASGFTVSSNYMSWVRQAPGKGLEWVSVIYSGGDTYYADSVKGRFTISRDNSKNTLYLQMNSLRAEDTAVYYCAREGSSFWSGSAVSYYGMDVWGQGTTVTVSS VL: DIQMTQSPSTLSASVGDRVTITCRASQSIGSWLAWYQQKPGKAPKLLIYKASSLESGVPSRFSGSGSGTEFTLTISSLQPDDFATYYCQEYGSYRTFGGGTKVEIK | no binding (tested: 100 nM) | no binding (tested: 100 nM) | no binding (tested: 1 ug/ml) | no binding (tested: 1 ug/ml) | no binding (tested: 1 ug/ml) | 2.8 | 2.9 | 1.5 | 1.2 | 18.9
SB-45 (antibody, V domains shown, IgG) VH: QVQLQESGPGLVKPSETLSLTCAVSGYSISSGYYWAWIRQPPGKGLEWIGSIYHSGSTYYNPSLKSRVTISVDTSKNQFSLKLSSVTAADTAVYYCARDLSRGYAVSGMDVWGQGTTVTVSS VL: VLTQSPGTLSLSPGERATLSCRASQSVSSSFLAWYQQKPGQAPRLLIYGASSRATGIPDRFSGSGSGTDFTLTISRLEPEDFAVYYCQQVVSVPTFGGGTKVEIK | no binding (tested: 100 nM) | no binding (tested: 100 nM) | no binding (tested: 1 ug/ml) | no binding (tested: 1 ug/ml) | no binding (tested: 1 ug/ml) | 8.5 | 2.5 | 1.4 | 1.2 | 13.9
SB-46 (antibody, V domains shown, IgG) VH: not shown VL: EIVLTQSPGTLSLSPGERATLSCRASQSVRSSYLAWYQQKPGQAPRLLIYGASSRATGIPDRFSGSGSGTDFTLTISRLEPEDFAVYYCQQLYSSPYTFGGGTKVEIK | no binding (tested: 100 nM) | no binding (tested: 100 nM) | no binding (tested: 1 ug/ml) | no binding (tested: 1 ug/ml) | no binding (tested: 1 ug/ml) | 5.3 | 2.1 | 1.3 | 1.4 | 20
SB-47 (antibody, V domains shown, IgG) VH: QLQLQESGPGLVKPSETLSLTCTVSGGSISSSSYAWGWIRQPPGKGLEWIGSIYYSGSTYYNPSLKSRVTISVDTSKNQFSLKLSSVTAADTAVYYCARDLGHYDYWSGSRDYYYGMDVWGQGTTVTVSS VL: DIQMTQSPSSLSASVGDRVTITCQASQDISNYLNWYQQKPGKAPKLLIYDASNLETGVPSRFSGSGSGTDFTFTISSLQPEDIATYYCQQADYFPITFGGGTKVEIK | no binding (tested: 100 nM) | no binding (tested: 100 nM) | no binding (tested: 1 ug/ml) | no binding (tested: 1 ug/ml) | no binding (tested: 1 ug/ml) | 1.6 | 2.1 | 1.3 | 1.7 | 14.4
